Experimental data published in patent US20040219635A1 (Dana-Farber, published 2004).
Ends that are not written are not given here.

Legend:
[1] = target: T1, HA-pVHL (UniProt P40337 1-213); test: peptide binding assay; unpublished data (16)
T1 construct: In the cells it sits in complexes; also called 35S-HA-pVHL; 35S-labeled pVHL

[2] = target: T1, HA-pVHL; test: peptide elution of HIF from anti-HA immunoprecipitates of HA-pVHL (ts20 cells); failure to displace
[3] = target: T2, pVHL (form used not given) (UniProt P40337 1-213); test: binding to GST-ODD after phosphatase treatment; unpublished data (16)
T2 construct: also called wild-type pVHL

[4] = target: T3, immobilized GST-pVHL, elongin B, elongin C complexes (UniProt P40337 54-213; Q15370 1-118; Q15369 17-112); test: capture of 35S-labeled protein on immobilized GST-VBC
T3 construct: also called GST-VBC; GST-VHL, elongin B, elongin C complexes

T1 sequence (P40337 whole entry): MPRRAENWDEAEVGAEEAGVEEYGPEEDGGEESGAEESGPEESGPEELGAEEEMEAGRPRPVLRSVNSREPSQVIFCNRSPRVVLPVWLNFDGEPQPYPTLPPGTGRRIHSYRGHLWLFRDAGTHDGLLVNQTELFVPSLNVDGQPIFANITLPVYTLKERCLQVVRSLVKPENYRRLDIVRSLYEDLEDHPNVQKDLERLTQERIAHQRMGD
T2 sequence (P40337 whole entry): as above

B1: biotinylated HIF (556-575) peptide with Met561 and Met568 replaced with alanine (peptide, UniProt Q16665 556-575, looked up)
peptide: DLDLEALAPYIPADDDFQLR
modifications: also: biotinylated (site not given here)
notes: Made for the mass spectrometry experiments
B1: binds [1].

DLDLEMLAAYIPMDDDFQLR (peptide, UniProt Q16665 556-575, looked up, also: biotinylated (site not given here)) [biotinylated HIF1α(556-575) Pro564Ala peptide]: no binding (tested: 7 µg of peptide in 65 µl of PBS) [2].

B2: GST-HIF1α(530-652) produced in E. coli and preincubated with rabbit reticulocyte lysate (other, UniProt Q16665 530-652, looked up)
chain: EFKLELVEKLFAEDTEAKNPFSTQDTDLDLEMLAPYIPMDDDFQLRSFDQLSPLESSSASPESASPQSTVTVFQQTQIQEPTANATTTTATTDELKTVTKDRMEDIKILIASPSPTHIHKETT
modifications: modified by a factor in reticulocyte lysate; later examples identify the modification as hydroxylation of Pro 564
notes: range 530-652; Incubated with rabbit reticulocyte lysate for 90 min at 30° C; also called GST-ODD; not shown: glutathione S-transferase (GST) fusion partner
B2: binds [3].

B3: Leu562Ala Gal4-HA-HIF1α(530-652) (other)
chain: EFKLELVEKLFAEDTEAKNPFSTQDTDLDLEMAAPYIPMDDDFQLRSFDQLSPLESSSASPESASPQSTVTVFQQTQIQEPTANATTTTATTDELKTVTKDRMEDIKILIASPSPTHIHKETT
notes: range 530-652; also called Gal4-ODD Leu562Ala; not shown: Gal4 portion
B3: no binding [4].

B4: Pro564Ala Gal4-HA-HIF1α(530-652) (other)
chain: EFKLELVEKLFAEDTEAKNPFSTQDTDLDLEMLAAYIPMDDDFQLRSFDQLSPLESSSASPESASPQSTVTVFQQTQIQEPTANATTTTATTDELKTVTKDRMEDIKILIASPSPTHIHKETT
notes: range 530-652; also called Gal4-ODD Pro564Ala; not shown: Gal4 portion
B4: no binding [4].
